{"source": "patent JP2008058208A", "about": "(dated 2008)", "key": {"C−反応性タンパク(CRP), ヒトCRP抗原 [1]": {"target": "T1, C−反応性タンパク(CRP), ヒトCRP抗原 (human, UniProt P02741 19-224)", "T1 sequence (looked up)": "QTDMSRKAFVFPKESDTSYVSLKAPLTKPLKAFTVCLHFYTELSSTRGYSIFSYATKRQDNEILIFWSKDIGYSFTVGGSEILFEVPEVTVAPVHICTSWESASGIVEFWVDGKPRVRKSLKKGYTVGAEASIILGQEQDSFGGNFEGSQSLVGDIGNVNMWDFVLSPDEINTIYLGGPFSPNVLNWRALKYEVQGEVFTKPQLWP", "assay": "phage ELISA on plate-coated CRP, detected with HRP/anti-M13"}, "C−反応性タンパク(CRP), ヒトCRP抗原 [2]": {"target": "T1, C−反応性タンパク(CRP), ヒトCRP抗原", "assay": "ELISA of His-tag purified scFv on CRP"}, "Protein A": {"target": "T2, Protein A (Staphylococcus aureus, UniProt P38507 37-477)", "T2 construct": "also called プロテインA; Staphylococcus aureusが産生するProtein A", "assay": "immunochromatography test strip, His20 as capture and as gold-colloid label; samples of Protein A and S. aureus cell suspensions"}}, "data": [{"binder": "陽性クローン株No.40のファージ抗体 (scFv No.40 displayed on M13 phage) (scFv, not shown: C-terminal fusion to the phage coat protein from phagemid pCANTAB5E; not spelled out) scFv: MAQVKLQQSGAEVVKPGASVKLSCKASGYTFIFYHIYWVKQRPGQGLEWIGGINPRSGGTNLNEKFKSKATLTVDKSSSTAYMQLNGLTSEDSAFYYCTRSGTTYDYALDYWGQGTTVTVSSGGGGSGGGGSGGGGSDIELTQSPAIMAASLGQKVTMTCSASSSMSSSYLHWYQQKSGASPKPLIHRTSTLASGVPARFSGSGSGTSYSLTISSVEAEDDATYYCQQWSGYPLTFGGGTKLEIKRAAA", "values": [{"measurement": "binding result", "setting": "C−反応性タンパク(CRP), ヒトCRP抗原 [1]", "result": "binds"}]}, {"binder": "抗CRPscFv抗体No.40 (His-tagged scFv, His40) (scFv, Mouse scFv (VH-(G4S)3 linker-VL) from an immune phage library, expressed in E. coli HB2151 and purified by the His tag; also called No.40抗体; not shown: C-terminal 6x histidine tag added by a standard method) scFv: MAQVKLQQSGAEVVKPGASVKLSCKASGYTFIFYHIYWVKQRPGQGLEWIGGINPRSGGTNLNEKFKSKATLTVDKSSSTAYMQLNGLTSEDSAFYYCTRSGTTYDYALDYWGQGTTVTVSSGGGGSGGGGSGGGGSDIELTQSPAIMAASLGQKVTMTCSASSSMSSSYLHWYQQKSGASPKPLIHRTSTLASGVPARFSGSGSGTSYSLTISSVEAEDDATYYCQQWSGYPLTFGGGTKLEIKRAAA", "values": [{"measurement": "binding result", "setting": "C−反応性タンパク(CRP), ヒトCRP抗原 [2]", "result": "binds"}]}, {"binder": "陽性クローン株No.20のファージ抗体 (scFv No.20 displayed on M13 phage) (scFv, not shown: C-terminal fusion to the phage coat protein from phagemid pCANTAB5E; not spelled out) scFv: MAQVKLPESGAELVKPGASVKLSCTPSGFNIKDTYIHWVRQRPGQGLEWIGRIDPANGHTRYAPKFQGKATLTADASSNTAYLHLSSLTSEDTAVYYCPRIVWYSGGYAMDYWGQGTTVTVSSGGGGSGGGGSGGGGSDIELTQSPSSMYASLGERVTITCKASQDINSYLSWFQQKPGKSPKTLIYRANRLVDGVPSRFSGSGSGQDYSLTISSLKYEDMGIYYCLQYDEFPLTFGGGTKLEIKRAA", "values": [{"measurement": "binding result", "setting": "C−反応性タンパク(CRP), ヒトCRP抗原 [1]", "result": "binds"}]}, {"binder": "抗CRPscFv抗体No.20 (His-tagged scFv, His20) (scFv, Mouse scFv (VH-(G4S)3 linker-VL) from an immune phage library, expressed in E. coli HB2151 and purified by the His tag; also called No.20抗体; His20 scFv抗体; not shown: C-terminal 6x histidine tag added by a standard method) scFv: MAQVKLPESGAELVKPGASVKLSCTPSGFNIKDTYIHWVRQRPGQGLEWIGRIDPANGHTRYAPKFQGKATLTADASSNTAYLHLSSLTSEDTAVYYCPRIVWYSGGYAMDYWGQGTTVTVSSGGGGSGGGGSGGGGSDIELTQSPSSMYASLGERVTITCKASQDINSYLSWFQQKPGKSPKTLIYRANRLVDGVPSRFSGSGSGQDYSLTISSLKYEDMGIYYCLQYDEFPLTFGGGTKLEIKRAA", "values": [{"measurement": "binding result", "setting": "Protein A", "result": "no binding"}]}]}
